Reference: PMC5145805, “Structural Basis for Selective Interaction between the ESCRT Regulator HD-PTP and UBAP1” (Structure(London, England:1993), 2016)
Changes are numbered by the printed parent chain. Numbers in names are those of the source. Entries after “also recorded” stand apart in the source; their conditions may differ. Each block holds one molecule with its values, some of them ahead of it.

Legend:
[1] = tested on: FKBP-HD-PTPBro1-CC in HeLa cells; assay: Mitochondrial targeting (FKBP-HD-PTPBro1-CC / Mito-FRB relocalization, immunofluorescence); type: cell-based; details: rapamycin 1 μM, 3 hr; for relocation to mitochondria with HD-PTPBro1-CC: HeLa
Method: Mitochondrial targeting experiments were performed as previously described ([Sato et al., 2015]). HeLa cells were transiently transfected with HD-PTPBro1-CC containing an N-terminal FKBP sequence and a C-terminal myc tag (cloned into pcDNA5), Mito-FRB (a gift from Martin Lowe, Manchester, UK), and either GFP, WT UBAP1-GFP, or F268S UBAP1-GFP (in pEGFP). Mitochondrial relocation of FKBP-HD-PTPBro1-CC-myc was induced by addition of 1 μM rapamycin (Sigma) for 3 hr. Cells were then prepared for immunofluorescence microscopy as above. Mitochondrial relocation of GFP-tagged constructs was scored in three independent experiments (100 cells counted per experiment).

HD-PTPBro1-CC = target: T1, HD-PTPBro1-CC (Homo sapiens, UniProt Q9H3S7); assay: Yeast two-hybrid interaction with HD-PTPBro1-CC; type: binding; details: Matchmaker Gold, each triplicate experiment repeated at least three times
T1 construct: HD-PTPBro1-CC (1–714) was cloned into a pET28a vector with restriction sites Nde1 and Xho1; made in house; host or cells: Escherichia coli BL21(DE3)
T1 sequence (Q9H3S7 1-714): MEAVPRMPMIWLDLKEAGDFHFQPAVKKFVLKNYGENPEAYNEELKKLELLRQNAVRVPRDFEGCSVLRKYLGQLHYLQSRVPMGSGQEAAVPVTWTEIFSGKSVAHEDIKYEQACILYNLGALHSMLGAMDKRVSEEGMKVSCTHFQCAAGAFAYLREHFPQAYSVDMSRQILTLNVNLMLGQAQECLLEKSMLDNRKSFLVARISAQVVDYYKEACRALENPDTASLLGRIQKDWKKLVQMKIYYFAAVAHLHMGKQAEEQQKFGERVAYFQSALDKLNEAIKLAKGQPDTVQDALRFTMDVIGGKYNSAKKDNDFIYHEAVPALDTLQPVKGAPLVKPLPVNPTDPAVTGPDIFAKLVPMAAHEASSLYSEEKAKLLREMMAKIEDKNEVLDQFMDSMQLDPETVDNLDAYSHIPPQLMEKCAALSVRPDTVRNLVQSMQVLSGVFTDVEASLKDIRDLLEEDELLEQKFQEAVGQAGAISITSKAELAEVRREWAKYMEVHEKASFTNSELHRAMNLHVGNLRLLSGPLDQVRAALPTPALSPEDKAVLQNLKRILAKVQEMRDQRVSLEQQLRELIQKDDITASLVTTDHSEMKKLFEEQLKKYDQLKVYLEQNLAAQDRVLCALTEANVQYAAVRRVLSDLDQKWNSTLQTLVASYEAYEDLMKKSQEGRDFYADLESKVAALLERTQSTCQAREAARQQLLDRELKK
Method: HD-PTPBro1-CC, HD-PTPBro1-CC F678D, and AlixBro1-V cloned into pGBKT7 were used as described previously ([Stefani et al., 2011]). UBAP1 (122–308) was cloned into pGADT7. Further deletion and missense mutations in UBAP1 as indicated were generated by standard PCR-based mutagenesis. Interactions were tested using the Matchmaker Gold system (Clontech) as described previously ([Stefani et al., 2011]) Each triplicate experiment was repeated at least three times.

[2] = target: T2, HD-PTPCC (coiled-coil domain of HD-PTP, residues 363-712) (UniProt Q9H3S7 363-712); assay: SPR; ProteOn XPR36; HD-PTP constructs (50-100 ug/mL) immobilised on an HTE chip, peptides injected (50 uL at 100 uL/min); 25 C; 10 mM HEPES pH 7.4, 150 mM NaCl, 0.05% Tween 20; equilibrium binding model; details: both partners purified
T2 construct: HD-PTP (His domain protein tyrosine phosphatase; PTPN23), coiled-coil domain, residues 363-712; Form used in the biosensor (SPR) and NMR experiments; immobilisation was on an HTE chip, which probably captures the His tag (surmise); also called CC domain of HD-PTP; WT HD-PTPCC; source: E. coli BL21(DE3), purified (nickel beads, Mono Q anion exchange, Superdex200)
T2 sequence (looked up): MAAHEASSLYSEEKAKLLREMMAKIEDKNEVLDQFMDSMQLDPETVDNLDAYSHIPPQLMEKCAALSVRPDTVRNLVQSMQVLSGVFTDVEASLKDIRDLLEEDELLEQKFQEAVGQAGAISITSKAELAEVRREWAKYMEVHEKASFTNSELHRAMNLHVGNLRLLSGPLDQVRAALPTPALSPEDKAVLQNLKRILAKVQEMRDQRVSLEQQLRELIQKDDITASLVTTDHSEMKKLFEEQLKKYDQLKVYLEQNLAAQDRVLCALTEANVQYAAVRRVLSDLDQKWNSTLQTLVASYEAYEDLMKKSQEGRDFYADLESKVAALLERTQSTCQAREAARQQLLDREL

[3] = target: T3, HD-PTP_(Bro1-CC) (residues 1-714), His6-tagged (UniProt Q9H3S7 1-714); assay: as above; details: both partners purified
T3 construct: HD-PTP (PTPN23), Bro1 and coiled-coil domains, residues 1-714; Precipitated by an anti-His antibody in the co-immunoprecipitation; immobilised on an HTE chip in SPR; also called His6-HD-PTP_(Bro1-CC); source: E. coli BL21(DE3), purified (nickel beads, Mono Q anion exchange, Superdex200)
T3 sequence (looked up): T1 sequence (Q9H3S7 1-714)

CC domain of HD-PTP = details: ref Stefani et al., 2011; cited from earlier work
From the text: Specific interaction with UBAP1 is central to the function of HD-PTP ([Stefani et al., 2011]), and their cooperation is essential to regulate integrin signaling and cell migration ([Kharitidi et al., 2015]). Therefore, we aimed to define this interaction at the molecular level. We previously identified the central region of UBAP1 (122–309) as binding to the CC domain of HD-PTP in a yeast two-hybrid (Y2H) screen ([Stefani et al., 2011]). […] In ad ...

Molecule: CO[C@H]1C[C@@H]2CC[C@@H](C)[C@@](O)(O2)C(=O)C(=O)N2CCCC[C@H]2C(=O)O[C@H]([C@H](C)C[C@@H]2CC[C@@H](O)[C@H](OC)C2)CC(=O)[C@H](C)/C=C(\C)[C@@H](O)[C@@H](OC)C(=O)[C@H](C)C[C@H](C)/C=C/C=C/C=C/1C [rapamycin, reference compound]
- relocalization of HD-PTPBro1-CC to mitochondria ([1]; FKBP-HD-PTPBro1-CC with mito-FRB): efficient relocalization

- Y2H binding to HD-PTP (HD-PTPBro1-CC): minimal region for effective binding
Molecule: residues 260–269: minimal region of UBAP1 for effective binding to HD-PTP (VSNIKSLSFP; UniProt Q9NZ09 260-269, looked up, fragment)

- Kd [2]: 66.3 ± 0.35 µM
- Kd [3]: 31.9 ± 0.85 µM
B1: UBAP1C (UBAP1 peptide containing residues 261-280) (peptide, UniProt Q9NZ09 261-280, looked up)
peptide: SNIKSLSFPKLDSDDSNQKT
notes: also called UBAP1C peptide

B2: UBAP1-GFP: UBAP1 GFP fusion, wild-type (protein)
chain: MASKKLGADFHGTFSYLDDVPFKTGDKFKTPAKVGLPIGFSLPDCLQVVREVQYDFSLEKKTIEWAEEIKKIEEAEREAECKIAEAEAKVNSKSGPEGDSKMSFSKTHSTATMPPPINPILASLQHNSILTPTRVSSSATKQKVLSPPHIKADFNLADFECEEDPFDNLELKTIDEKEELRNILVGTTGPIMAQLLDNNLPRGGSGSVLQDEEVLASLERATLDFKPLHKPNGFITLPQLGNCEKMSLSSKVSLPPIPAVSNIKSLSFPKLDSDDSNQKTAKLASTFHSTSCLRNGTFQNSLKPSTQSSASELNGHHTLGLSALNLDSGTEMPALTSSQMPSLSVLSVCTEESSPPNTGPTVTPPNFSVSQVPNMPSCPQAYSELQMLSPSERQCVETVVNMGYSYECVLRAMKKKGENIEQILDYLFAHGQLCEKGFDPLLVEEALEMHQCSEEKMMEFLQLMSKFKEMGFELKDIKEVLLLHNNDQDNALEDLMARAGAS
modifications: left off: GFP, end not stated, kept
notes: UBAP1 GFP fusion, wild-type
- relocation to mitochondria with HD-PTPBro1-CC [1]: relocated to mitochondria; also recorded: translocates to mitochondria

B3: L271A: L271A mutation in UBAP1, Y2H fragment (protein, UniProt Q9NZ09 1-502, looked up, variant L271A)
Ubiquitin-associated protein 1: B2 chain with L271A
- Y2H binding to HD-PTP (HD-PTPBro1-CC): no obvious effect on binding; also recorded: weaker phenotype

B4: P269A: P269A mutation in UBAP1, Y2H fragment (protein, UniProt Q9NZ09 1-502, looked up, variant P269A)
Ubiquitin-associated protein 1: B2 chain with P269A
- Y2H binding to HD-PTP (HD-PTPBro1-CC): no obvious effect on binding; also recorded: weaker phenotype

- Y2H binding to HD-PTP (HD-PTPBro1-CC): abolished binding
B5: F268S: F268S mutation in the FPXL motif of UBAP1, Y2H fragment (protein, UniProt Q9NZ09 1-502, looked up, variant F268S)
Ubiquitin-associated protein 1: B2 chain with F268S

B6: UBAP1-GFP F268S: UBAP1-GFP with F268S mutation (protein)
chain: B2 chain with F268S
modifications: left off: GFP, end not stated, kept
notes: UBAP1-GFP with F268S mutation
- relocation to mitochondria with HD-PTPBro1-CC [1]: not

B7: UBAP1 (122–309): central region of UBAP1 (122–309) (protein)
chain: ASLQHNSILTPTRVSSSATKQKVLSPPHIKADFNLADFECEEDPFDNLELKTIDEKEELRNILVGTTGPIMAQLLDNNLPRGGSGSVLQDEEVLASLERATLDFKPLHKPNGFITLPQLGNCEKMSLSSKVSLPPIPAVSNIKSLSFPKLDSDDSNQKTAKLASTFHSTSCLRNGTFQNSLKPSTQS
modifications: left off: Gal4 activation domain (from the vector pGADT7), end not stated, kept
- Y2H binding to CC domain of HD-PTP (CC domain of HD-PTP): binding
